Assay results published in patent US20220040297A1 (Chugai, published 2022).
Where a chain is given by its changes, count along the chain named. One block for each binder: values may come before it.

Molecular target: CD3ε homodimer protein (human, UniProt P07766 23-126, limits assumed)
Assay: SPR, immobilized CD3ε homodimer;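 note: biacore T200 surface plasmon resonance at 25 °C, antibody variants flowed as analytes over amine-coupled CD3ε homodimer on a CM4 chip, variant binding amount divided by that of GLS3000 antibody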
Procedure: Each one-amino acid altered form constructed, expressed, and purified in the paragraph (6-2) was evaluated using Biacore T200 (GE Healthcare Japan Corp.). An appropriate amount of CD3ε homodimer protein was immobilized onto Sensor chip CM4 (GE Healthcare Japan Corp.) by the amine coupling method. Then, the antibody having an appropriate concentration was injected thereto as an analyte and allowed to interact with the CD3ε homodimer protein on the sensor chip. Then, the sensor chip was regenerated by the injection of 10 mmol/L glycine-HCl (pH 1.5). The assay was conducted at 25° C., and HBS-EP+ (GE Healthcare Japan Corp.) was used as a running buffer. […] Each parameter was calculated using Biacore T200 Evaluation Software (GE Healthcare Japan Corp.).
Specifically, when the amount of the GLS3000-containing antibody bound was defined as X and the amount of the L chain one-amino acid altered form bound was defined as Y, a value of Z (ratio of amounts bound)=Y/X was used.

Sequence of CD3ε homodimer protein (P07766 23-126 limits assumed): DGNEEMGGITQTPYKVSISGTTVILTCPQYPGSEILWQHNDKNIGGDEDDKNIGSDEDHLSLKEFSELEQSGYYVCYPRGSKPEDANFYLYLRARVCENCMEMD

ratio of amounts bound (vs GLS3000): 0.21
B3: GLS3000 H34W (antibody, name in Kabat numbering, V domains shown)
VH: QVQLVESGGGVVQPGRSLRLSCAASGFTFSNAWMHWVRQAPGKGLEWVAQIKAKSNNYATYYAESVKGRFTISRDDSKNSLYLQMNSLKTEDTAVYYCRYVHYGAYYGVDAWGQGTTVTVSS
VL: DIVMTQSPLSLPVTPGEPASISCRSSQSLVHSNRNTYLWWYQQKPGQAPRLLIYKVSNRFSGVPDRFSGSGSGTDFTLKISRVEAEDVGVYYCGQGTQVPYTFGQGTKLEIK
notes: one-arm format as m2

ratio of amounts bound (vs GLS3000): 0.34
B6: GLS3000 H34P (antibody, name in Kabat numbering, V domains shown)
VH: B3 VH
VL: B3 VL with W39P
notes: one-arm format as m2

ratio of amounts bound (vs GLS3000): 0.65
B10: GLS3000 H34N (antibody, name in Kabat numbering, V domains shown)
VH: B3 VH
VL: B3 VL with W39N
notes: one-arm format as m2

ratio of amounts bound (vs GLS3000): 0.85
B16: GLS3000 H34V (antibody, name in Kabat numbering, V domains shown)
VH: B3 VH
VL: B3 VL with W39V
notes: one-arm format as m2

ratio of amounts bound (vs GLS3000): 0.89
B17: GLS3000 H34T (antibody, name in Kabat numbering, V domains shown)
VH: B3 VH
VL: B3 VL with W39T
notes: one-arm format as m2

ratio of amounts bound (vs GLS3000): 0.59
B21: GLS3000 H34Y (antibody, name in Kabat numbering, V domains shown)
VH: B3 VH
VL: B3 VL with W39Y
notes: one-arm format as m2

ratio of amounts bound (vs GLS3000): 0.78
B26: GLS3000 H34S (antibody, name in Kabat numbering, V domains shown)
VH: B3 VH
VL: B3 VL with W39S
notes: one-arm format as m2

ratio of amounts bound (vs GLS3000): 0.2
B28: GLS3000 H34R (antibody, name in Kabat numbering, V domains shown)
VH: B3 VH
VL: B3 VL with W39R
notes: one-arm format as m2

ratio of amounts bound (vs GLS3000): 0.59
B29: GLS3000 H34L (antibody, name in Kabat numbering, V domains shown)
VH: B3 VH
VL: B3 VL with W39L
notes: one-arm format as m2

ratio of amounts bound (vs GLS3000): 0.35
B30: GLS3000 H34M (antibody, name in Kabat numbering, V domains shown)
VH: B3 VH
VL: B3 VL with W39M
notes: one-arm format as m2

ratio of amounts bound (vs GLS3000): 0.25
B31: GLS3000 H34Q (antibody, name in Kabat numbering, V domains shown)
VH: B3 VH
VL: B3 VL with W39Q
notes: one-arm format as m2

More lines, now with the values behind:

B1: GLS3000 H27dF (antibody, name in Kabat numbering, V domains shown)
VH: B3 VH
VL: B3 VL with H31F, W39H
notes: one-arm format as m2
ratio of amounts bound (vs GLS3000): 0.63

B2: GLS3000 H27dR (antibody, name in Kabat numbering, V domains shown)
VH: B3 VH
VL: B3 VL with H31R, W39H
notes: one-arm format as m2
ratio of amounts bound (vs GLS3000): 0.31

B4: GLS3000 H27dS (antibody, name in Kabat numbering, V domains shown)
VH: B3 VH
VL: B3 VL with H31S, W39H
notes: one-arm format as m2
ratio of amounts bound (vs GLS3000): 0.32

B5: GLS3000 H27dQ (antibody, name in Kabat numbering, V domains shown)
VH: B3 VH
VL: B3 VL with H31Q, W39H
notes: one-arm format as m2
ratio of amounts bound (vs GLS3000): 0.25

B7: GLS3000 H27dI (antibody, name in Kabat numbering, V domains shown)
VH: B3 VH
VL: B3 VL with H31I, W39H
notes: one-arm format as m2
ratio of amounts bound (vs GLS3000): 0.26

B8: GLS3000 H34F (antibody, name in Kabat numbering, V domains shown)
VH: B3 VH
VL: B3 VL with W39F
notes: one-arm format as m2
ratio of amounts bound (vs GLS3000): 0.27

B9: GLS3000 H34I (antibody, name in Kabat numbering, V domains shown)
VH: B3 VH
VL: B3 VL with W39I
notes: one-arm format as m2
ratio of amounts bound (vs GLS3000): 0.65

B11: GLS3000 H27dK (antibody, name in Kabat numbering, V domains shown)
VH: B3 VH
VL: B3 VL with H31K, W39H
notes: one-arm format as m2
ratio of amounts bound (vs GLS3000): 0.29

B12: GLS3000 H34K (antibody, name in Kabat numbering, V domains shown)
VH: B3 VH
VL: B3 VL with W39K
notes: one-arm format as m2
ratio of amounts bound (vs GLS3000): 2.17

B13: GLS3000 H27dY (antibody, name in Kabat numbering, V domains shown)
VH: B3 VH
VL: B3 VL with H31Y, W39H
notes: one-arm format as m2
ratio of amounts bound (vs GLS3000): 0.64

B14: GLS3000 H27dT (antibody, name in Kabat numbering, V domains shown)
VH: B3 VH
VL: B3 VL with H31T, W39H
notes: one-arm format as m2
ratio of amounts bound (vs GLS3000): 0.29

B15: GLS3000 H27dN (antibody, name in Kabat numbering, V domains shown)
VH: B3 VH
VL: B3 VL with H31N, W39H
notes: one-arm format as m2
ratio of amounts bound (vs GLS3000): 0.3

B18: GLS3000 H27dG (antibody, name in Kabat numbering, V domains shown)
VH: B3 VH
VL: B3 VL with H31G, W39H
notes: one-arm format as m2
ratio of amounts bound (vs GLS3000): 0.3

B19: GLS3000 H27dP (antibody, name in Kabat numbering, V domains shown)
VH: B3 VH
VL: B3 VL with H31P, W39H
notes: one-arm format as m2
ratio of amounts bound (vs GLS3000): 0.24

B20: GLS3000 H34A (antibody, name in Kabat numbering, V domains shown)
VH: B3 VH
VL: B3 VL with W39A
notes: one-arm format as m2
ratio of amounts bound (vs GLS3000): 1.06

B22: GLS3000 H34G (antibody, name in Kabat numbering, V domains shown)
VH: B3 VH
VL: B3 VL with W39G
notes: one-arm format as m2
ratio of amounts bound (vs GLS3000): 1.02

B23: GLS3000 H27dV (antibody, name in Kabat numbering, V domains shown)
VH: B3 VH
VL: B3 VL with H31V, W39H
notes: one-arm format as m2
ratio of amounts bound (vs GLS3000): 0.3

B24: GLS3000 H27dL (antibody, name in Kabat numbering, V domains shown)
VH: B3 VH
VL: B3 VL with H31L, W39H
notes: one-arm format as m2
ratio of amounts bound (vs GLS3000): 0.3

B25: GLS3000 H27dW (antibody, name in Kabat numbering, V domains shown)
VH: B3 VH
VL: B3 VL with H31W, W39H
notes: one-arm format as m2
ratio of amounts bound (vs GLS3000): 0.39

B27: GLS3000 H34E (antibody, name in Kabat numbering, V domains shown)
VH: B3 VH
VL: B3 VL with W39E
notes: one-arm format as m2
ratio of amounts bound (vs GLS3000): 0.23

B32: GLS3000 H34D (antibody, name in Kabat numbering, V domains shown)
VH: B3 VH
VL: B3 VL with W39D
notes: one-arm format as m2
ratio of amounts bound (vs GLS3000): 0.22
